Test [1] addresses T1, Human Factor XIa (human, UniProt P03951). In words: enzyme inhibition of FXIa, chromogenic substrate, fit to the tight-binding equation (apparent Ki*).
Test [2] addresses T2, Human plasma kallikrein (human, UniProt P03952). As to the kind of experiment: enzyme inhibition of plasma kallikrein, substrate S2302, fit to the tight-binding equation (apparent Ki*).
Test [3] concerns the target T2, Human plasma kallikrein. In words: enzyme inhibition of plasma kallikrein (apparent Ki*).
Test [4] has as its target T1, Human Factor XIa. In words: enzyme inhibition of FXIa, chromogenic substrate, fit to the tight-binding equation (apparent Ki*). The source holds these as a separate data set.
For test [5], the target named is T2, Human plasma kallikrein. As to the kind of experiment: enzyme inhibition of plasma kallikrein, substrate S2302, fit to the tight-binding equation (apparent Ki*). The source holds these as a separate data set.
Method: Determination of the apparent equilibrium dissociation constants of selected Kunitz domains with plasma kallikrein and FXIa. The inhibitory activity is expressed as the fractional activity (inhibited rate/uninhibited rate) at varying inhibitor concentrations. The apparent equilibrium dissociation constants were determined by nonlinear regression analysis of the data to equation 1.
Plots of the fractional rate versus inhibitor concentration were fit by nonlinear regression analysis to Equation 1 to determine apparent equilibrium dissociation constants (K_i^*):
Test [6] addresses T2, Human plasma kallikrein. In words: enzyme inhibition of plasma kallikrein (apparent Ki*), against APPI.
For test [7], the target named is T2, Human plasma kallikrein. In words: enzyme inhibition of plasma kallikrein (apparent Ki*), against BPTI.

Read-outs that look alike come from different tables or passages of the source. Where no end group is shown, it is not given here.

B1: KALI-D (designed binder)
chain: VREVCSEQAEDGHCRAAHPRWYFDVTEGKCAPFFYGGCGGNRNNFDTEEYCAAVCGSA
Consider B1, for which the Ki in test [1] is 5700 pM; in test [2], 25 pM; in test [3], less than 50 pM.

B2: KALI-30 (designed binder)
chain: VREVCSEQAEEGHCRAAILRWYFDVTEGKCAPFFYGGCGGNRNNFDTEEYCAAVCGSA
B2: the Ki in test [4] is 400 pM; in test [5] it was 258 pM.

B3: KALI-46 (designed binder)
chain: VREVCSEQAEEGRCRASILRWYFDVTEGKCAPFFYGGCGGNRNNFDTEEYCAAVCGSA
Regarding B3, the Ki turned out to be 300 pM in test [4] and 175 pM in test [5].

B4: KALI-8 (designed binder)
chain: VREVCSEQAELGHCRAAIPRWYFDVTEGKCAPFFYGGCGGNRNNFDTEEYCAAVCGSA
On to B4, for which the Ki in test [4] is 300 pM; in test [5] it was 74 pM.

B5: KALI-PY (designed binder)
chain: VREVCSEQAEPGHCRAAHPRWYFDVTEGKCAPFYYGGCGGNRNNFDTEEYCAAVCGSA
modifications: not fully specified (bridges); cysteine pairing not given here
As to B5, the results for the Ki in test [1] and in test [2] were 11700 pM and 136 pM, respectively.

B6: KALI-E (designed binder)
chain: VREVCSEQAEEGHCRAAHPRWYFDVTEGKCAPFFYGGCGGNRNNFDTEEYCAAVCGSA
Turning to B6, the Ki in test [1] turned out to be 4500 pM; in test [2] it was 103 pM.

B7: KALI-PV (designed binder)
chain: VREVCSEQAEPGHCRAAHPRWYFDVTEGKCAPFVYGGCGGNRNNFDTEEYCAAVCGSA
For the molecule B7, the Ki came out at 4100 pM in test [1] and 166 pM in test [2].

B8: KALI-EV (designed binder)
chain: VREVCSEQAEEGHCRAAHPRWYFDVTEGKCAPFVYGGCGGNRNNFDTEEYCAAVCGSA
With B8, the Ki in test [2] came to 117 pM.

B9: KALI-P (designed binder)
chain: VREVCSEQAEPGHCRAAHPRWYFDVTEGKCAPFFYGGCGGNRNNFDTEEYCAAVCGSA
Regarding B9, the Ki turned out to be 13800 pM in test [1] and 200 pM in test [2].

B10: KALI-EY (designed binder)
chain: VREVCSEQAEEGHCRAAHPRWYFDVTEGKCAPFYYGGCGGNRNNFDTEEYCAAVCGSA
Regarding B10, the Ki came to 7300 pM in test [1] and 980 pM in test [2].

B11: KALI-DY (designed binder)
chain: VREVCSEQAEDGHCRAAHPRWYFDVTEGKCAPFYYGGCGGNRNNFDTEEYCAAVCGSA
B11: the “fold better inhibition than APPI” value in test [6] is greater than 10000 fold. Further, the Ki in test [1] is 8200 pM; in test [2], 15 pM; in test [3], less than 50 pM. In addition, the “fold more potent than BPTI” value in test [7] was found to be 3000 fold.

B12: KALI-13 (designed binder)
chain: VREVCSEQAESGHCRAAIPRWYFDVTEGKCAPFFYGGCGGNRNNFDTEEYCAAVCGSA
For B12, the results for the Ki in test [4] and in test [5] were 1400 pM and 203 pM, respectively.

B13: KALI-DV (designed binder)
chain: VREVCSEQAEDGHCRAAHPRWYFDVTEGKCAPFVYGGCGGNRNNFDTEEYCAAVCGSA
For the molecule B13, the values for the Ki in test [1], in test [2] and in test [3] were 1300 pM, 43 pM and less than 50 pM, respectively.

B14: KALI-48 (designed binder)
chain: VREVCSEQAETGHCRAAIPRWYFDVTEGKCAPFFYGGCGGNRNNFDTEEYCAAVCGSA
For the molecule B14, the Ki in test [4] was 700 pM; in test [5] it was 209 pM.
